{"source": "paper PMC5423124", "target": "Schistosoma japonicum glutathione-S-transferase with mPyTK at position 52 (GST-E52mPyTK) (Schistosoma japonicum) [GST: P08515]", "experiment": "cross-linking"}
{"substance": "Schistosoma japonicum glutathione-S-transferase with mPyTK at position 52 (GST-E52mPyTK) (from UniProt P08515 2-218) (enzyme)", "values": [{"measurement": "photo-cross-linking yield of the covalent dimer", "result": 53, "unit": "%"}]}
